From US20200325236A1 (REYOUNG SUZHOU BIOLOGY SCIENCE AND TECHNOLOGY, published 2020)

T1: human OX-40 protein (human, UniProt P43489 29-214, limits assumed)
T1 construct: Homologous family member used as the specificity control
T1 sequence (looked up): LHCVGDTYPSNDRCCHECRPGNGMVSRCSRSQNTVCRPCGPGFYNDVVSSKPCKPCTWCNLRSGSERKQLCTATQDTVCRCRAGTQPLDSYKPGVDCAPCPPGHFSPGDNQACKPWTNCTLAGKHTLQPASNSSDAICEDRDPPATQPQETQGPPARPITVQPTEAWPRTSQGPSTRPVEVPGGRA

B1: ab1 chimeric antibody (anti-human 4-1BB antibody ab1) (antibody, human IgG1, V domains shown)
VH: QVQLQQSGAELVRPGTSVKISCKASGYAFTNYWLGWVKQRPGHGLEWIGDIYPGNGNSYYNEKFKGRATLTADKSSSTVYMQLSSLTSEDSVVYFCTRSSSYYRDVMDYWGQGTSVTVSS
VL: DIQMTQSPASLSASVGETVTITCRASENIYSYLVWYQQKQGKSPQLLVYNAKTLAEGVSSRFSGSGSGTQFSLKINSLQPEDFGSYYCQHHYGTPLTFGAGTKLELKR
notes: also called anti-h4-1BB chimeric antibody; anti-h4-1BB monoclonal antibody
B2: Humanized 4-1BB antibody (antibody, V domains shown)
VH: QVQLVQSGAEVKKPGASVKVSCKASGYAFTNYWLGWVRQAPGHGLEWMGDIYPGNGNSYYAQKFQGRVTMTRDKSSSTVYMELSSLRSEDTAVYFCTRSSSYYRDVMDYWGQGTLVTVSS
VL: DIQLTQSPSFLSASVGDRVTITCRASENIYSYLVWYQQKPGKAPKLLIYNAKTLAEGVPSRFSGSGSGTEFTLTISSLQPEDFATYYCQHHYGTPLTFGAGTKLEIKR
notes: ab1 after humanization by template replacement with back mutations; also called humanized anti-human 4-1BB antibody; ab1 humanized antibody

Assays:
[1] = target: cynomolgus monkey 4-1BB protein (cynomolgus monkey); assay: ELISA, cynomolgus monkey 4-1BB coated at 1 ug/mL, HRP goat-anti-human IgG detection
Protocol: (§1) The cross-reactive activity of the antibody with cynomolgus monkey 4-1BB molecules is determined by ELISA. The ELISA comprises steps of coating the human 4-1BB or cynomolgus monkey 4-1BB (1 μg/mL) with the ELISA plate, incubating overnight at 4 DEG C.; washing three times with PBST (0.1% Tween 20), blocking with 3% BSA for 1 h; washing three times, adding the purified anti-human 4-1BB antibody prepared in the embodiment 2 and incubating for 1 h; washing three times and adding horse radish peroxidase (HRP) labeled goat-anti-human IgG (1:2000 dilution) and incubating for 1 h; washing three times, then adding the substrate solution (TMB) and developing the color at room temperature in the dark; and finally, adding the stop solution (2N H₂SO₄) and reading the optical density (OD) value at 450 nm.

human OX-40 protein = target: T1, human OX-40 protein; assay: ELISA, plate coated with human OX-40 protein (1 ug/mL), HRP goat anti-human IgG, OD 450 nm
human 4-1BB protein [2] = target: T2, human 4-1BB protein (human, UniProt Q07011 24-186, limits assumed); assay: ELISA of binding activity before and after humanization; the coated antigen is not named there, taken as 4-1BB from the legend and axis
T2 construct: Coating protein in the ELISAs of Embodiments 4 and 5; also called h4-1BB

human 4-1BB protein [3] = target: T2, human 4-1BB protein; assay: ELISA, human 4-1BB coated at 1 ug/mL, HRP goat-anti-human IgG detection
Protocol: as §1

human 4-1BB protein [4] = target: T2, human 4-1BB protein; assay: ELISA, plate coated with human 4-1BB protein (1 ug/mL), HRP goat anti-human IgG, OD 450 nm
[5] = target: T3, human 4-1BB-Fc fusion protein (human, UniProt Q07011 24-186); assay: SPR, Biacore T200, h4-1BB-Fc amine-coupled to chip, antibody 0.3125-5.0 ug/mL as analyte
T3 construct: Antigen amine-coupled to the Biacore chip; also called h4-1BB-Fc fusion protein; h4-1BB; not shown: Fc part
Protocol: Affinity of the antibody: determining binding kinetics of the purified antibody which is prepared in the embodiment 2 and the h4-1BB by using BIAcore T200; coupling 1 mg/mL antigen (h4-1BB-Fc fusion protein) to the surface of a CMS chip by using an amino coupling method, binding at 30 μL/min for 300 s when the concentration of the antibody is within 0.3125-5.0 μg/mL and then dissociating for 300 s; and analyzing data recorded by the Biacore T200 by using Biacore T200 Evaluation Software, wherein analysis results are as shown in Table 1.

EC50 [1] [nM] | binding result (human OX-40 protein) | EC50 (read off the curve) (human 4-1BB protein [2]) [µg/mL] | EC50 (human 4-1BB protein [3]) [nM] | EC50 (read off the curve) (human 4-1BB protein [4]) [µg/mL] | Kd [5] [nM] | koff [5] [s⁻¹] | kon [5] [M⁻¹ s⁻¹] | Binder
2.67 | no binding | ~0.09 | 0.67 | ~0.1 | 0.0934 | 1.37e-05 | 146000 | B1
– | – | ~0.05 | – | – | – | – | – | B2
